The target in this test is Francisella tularensis subsp. holarctica LVS 2-C-methyl-D-erythritol 4-phosphate cytidylyltransferase (Francisella tularensis subsp. holarctica LVS). Put plainly: SEC.

Consider 1 substance from paper PMC3111433.

In general, stoichiometry N refers to a count of units in the complex or per binding partner. For “Francisella tularensis subsp. holarctica LVS 2-C-methyl-D-erythritol 4-phosphate cytidylyltransferase (enzyme)”, the stoichiometry N was determined as 2.
